Source: patent publication US20230295316A1 (FRED HUTCHINSON CANCER CENTER, published 2023)

T1: Hs_CD123_6His-Avi (CD123 ECD-His-Avi fusion protein) (human, UniProt P26951 19-303)
T1 construct: The signal peptide is marked only by bold type, so its limits cannot be read here and were not guessed; also called His-Avi tagged peptide encompassing the ECD of human CD123
T1 sequence: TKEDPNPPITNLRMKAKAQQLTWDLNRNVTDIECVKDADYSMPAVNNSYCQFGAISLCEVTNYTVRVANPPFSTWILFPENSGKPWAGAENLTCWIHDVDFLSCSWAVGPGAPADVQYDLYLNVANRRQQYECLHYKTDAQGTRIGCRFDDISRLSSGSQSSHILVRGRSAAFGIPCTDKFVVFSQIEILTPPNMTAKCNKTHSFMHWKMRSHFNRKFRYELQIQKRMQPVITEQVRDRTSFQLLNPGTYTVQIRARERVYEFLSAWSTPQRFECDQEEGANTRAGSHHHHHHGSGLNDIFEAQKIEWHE

B1: 123-5C7 (murine anti-CD123 antibody, IgG2b isotype, Kappa Light Chain) (antibody, V domains shown)
VH: DVQLQESGPGLVKPSQSLSLTCSVTGYSITSSYYWNWIRQFPGNKLEWMGYISYDGSNNYNPSLKNRISITRDTSKTQFFLNLNSVTTEDTATYYCARGDGYYFDYWGQGTTLTVSS
VL: DFVMSQSPSSLAVSVGEKITINCKSSQSLFFGSTQKNYLAWYQQKPGQSPKLLIFWSSTRESGVPDRFTGSGSGTDFTLSINSVKAEDLAVYYCQQYYNYPWTFGGGTKLEIK
notes: murine IgG2b, kappa
B2: 123-13E1 (murine anti-CD123 antibody, IgG2b isotype, Kappa Light Chain) (antibody, V domains shown)
VH: EVQLQQSGPELVKPGASVKISCKASGYTFTDHYMNWVKQSHGERLEWIGDIIPNNGGSTYSQKFKGKATLTVDKSSSTAYMELRSLTSEDSAVYYCARNGYYWYFDVWGTGTTVTVSS
VL: DIVLTQSPSSLAMSVGQKVTMSCKSSQSLLNSSNQKNYLAWYQQKPGQSPKLLVYFASTRESGVPDRFTGSGSGTDFTLTISTVQAEDLAFYYCHQHYSIPRTFGGGTKLEIT
notes: murine IgG2b, kappa
B3: 123-12A10 (murine anti-CD123 antibody, IgG2b isotype, Kappa Light Chain) (antibody, V domains shown)
VH: EVQLQQSGPELVKPGASVKISCKTSGYTFTDYYMNWVKQSHGKSLEWIGDIIPNNGGTSYHQKFKGKATLTVDKSSNTAYMELRSLTSEDSAVYYCARYGSSWFFDVWGTGTTVTVSS
VL: DIVMSQSPSSLAVSVGEKVTMSCKSSQSLLHSSNQKNYLAWYQQKPGQSPKLLIYWASTRESGVPDRFTGSGSGTDFTLTISSVKAEDLAVYYCQQYYSFPRTFGGGTKLEIK
notes: murine IgG2b, kappa
B4: 123-ATX1D9, fully human recombinant antibody, human IgG1 framework (antibody)
heavy: not shown
light: QSALTQPPSASGSPGQSVTISCTGTSSDVGGYNYVSWYQQHPGKAPKIMIYEVNKRPAGVPDRFSGSKSGNTASLTVSGLQAEDEAHYYCNSYTDSNNLIFGGGTKLTVLGQPKANPTVTLFPPSSEELQANKATLVCLISDFYPGAVTVAWKADGSPVKAGVETTKPSKQSNNKYAASSYLSLTPEQWKSHRSYSCQVTHEGSTVEKTVAPTECS
notes: Lambda light chain; also called 1D9 (human IgG1)
B5: 123-ATX1D9, fully human recombinant antibody, human IgG4 framework (antibody)
heavy: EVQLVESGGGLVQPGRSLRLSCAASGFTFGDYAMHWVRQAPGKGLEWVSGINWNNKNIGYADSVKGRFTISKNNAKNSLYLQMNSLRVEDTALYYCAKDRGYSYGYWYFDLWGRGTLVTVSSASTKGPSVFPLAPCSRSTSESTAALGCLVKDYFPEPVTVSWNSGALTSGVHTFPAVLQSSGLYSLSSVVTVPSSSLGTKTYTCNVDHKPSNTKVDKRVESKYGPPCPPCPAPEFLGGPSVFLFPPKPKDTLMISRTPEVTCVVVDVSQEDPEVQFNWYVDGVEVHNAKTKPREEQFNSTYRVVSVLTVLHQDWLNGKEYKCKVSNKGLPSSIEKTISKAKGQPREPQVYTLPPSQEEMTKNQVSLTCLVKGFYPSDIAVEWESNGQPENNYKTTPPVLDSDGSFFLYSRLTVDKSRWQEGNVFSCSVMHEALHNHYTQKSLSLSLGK
light: QSALTQPPSASGSPGQSVTISCTGTSSDVGGYNYVSWYQQHPGKAPKIMIYEVNKRPAGVPDRFSGSKSGNTASLTVSGLQAEDEAHYYCNSYTDSNNLIFGGGTKLTVLGQPKANPTVTLFPPSSEELQANKATLVCLISDFYPGAVTVAWKADGSPVKAGVETTKPSKQSNNKYAASSYLSLTPEQWKSHRSYSCQVTHEGSTVEKTVAPTECS
notes: Lambda light chain; also called 1D9 (human IgG4)
B6: 123-ATX1E3, fully human recombinant antibody, human IgG1 framework (antibody)
heavy: not shown
light: EIVLMQSPGTLSLSPGERVTLSCRASQTFSSSYLAWYQQKPGQAPRLLIYGASSRATGIPDRFSGSGSGTDFTLTINRLEPEDFAVYYCQQYGRSPFTFGPGTKLDIKRTVAAPSVFIFPPSDEQLKSGTASVVCLLNNFYPREAKVQWKVDNALQSGNSQESVTEQDSKDSTYSLSSTLTLSKADYEKHKVYACEVTHQGLSSPVTKSFNRGEC
notes: also called 1E3 (human IgG1)
B7: 123-ATX1E3, fully human recombinant antibody, human IgG4 framework (antibody)
heavy: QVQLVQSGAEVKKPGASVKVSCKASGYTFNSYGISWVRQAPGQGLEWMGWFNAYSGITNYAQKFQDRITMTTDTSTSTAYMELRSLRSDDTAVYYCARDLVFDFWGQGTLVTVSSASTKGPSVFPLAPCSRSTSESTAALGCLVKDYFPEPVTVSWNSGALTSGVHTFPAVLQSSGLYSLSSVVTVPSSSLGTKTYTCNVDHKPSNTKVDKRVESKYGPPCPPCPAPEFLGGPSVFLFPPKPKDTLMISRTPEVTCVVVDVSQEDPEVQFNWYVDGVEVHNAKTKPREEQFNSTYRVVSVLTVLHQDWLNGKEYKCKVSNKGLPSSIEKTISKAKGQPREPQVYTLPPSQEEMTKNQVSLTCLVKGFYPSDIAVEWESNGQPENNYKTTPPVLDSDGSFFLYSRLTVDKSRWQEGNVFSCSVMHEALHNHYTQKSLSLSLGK
light: EIVLMQSPGTLSLSPGERVTLSCRASQTFSSSYLAWYQQKPGQAPRLLIYGASSRATGIPDRFSGSGSGTDFTLTINRLEPEDFAVYYCQQYGRSPFTFGPGTKLDIKRTVAAPSVFIFPPSDEQLKSGTASVVCLLNNFYPREAKVQWKVDNALQSGNSQESVTEQDSKDSTYSLSSTLTLSKADYEKHKVYACEVTHQGLSSPVTKSFNRGEC
notes: also called 1E3 (human IgG4)
B8: 11F11 reacted with B10 (antibody, V domains shown)
VH: EVTLVESGGGLEQPGGSLSLSCAASGFTFTDYYMSWVRQPPGKALEWLALIRNKANGYTTEYSASVKGRFTISRDNSQSILYLQMNALRAEDSATYYCARQVRNYYGYEEDALDYWGQGTSVTVSS
VL: DIVLTQSPASLAVSLGQRATISCRASESLDFYGNSFMHWYQQKSGQPPKLLISRASNLESGIPPRFSGSGSRTDFTLTIDPVEADDVATYYCQQSYEDPYTFGGGTKLEIK
modifications: B10 on lysine amines, positions not given; B10 (isothiocyantophenethyl-ureido-closo-decaborate(2-)) on lysine amines, positions not given
notes: also called B10-conjugated 11F11
B9: 1H8 reacted with B10 (antibody, V domains shown)
VH: EVKLVESEGGLVQPGSSMKLSCTASGFTFSDYYMAWVRQVPEKGLEWVANIDDEGSSTYYLDSLKSRFIISRDNAKNILYLQMTSLKSEDTATYYCARGTTQTSFFVHWGQGTLVTVSA
VL: DIVLTQSPASLAVSLGQRATISCRASQSVSSSSYSFMHWYQKKPRQPPKLLIKYASTLEAGVPARFSGSGSGTDFTLNIHPVEEEDTATYYCQHSWEIPYTFGGGTKLEIK
modifications: B10 on lysine amines, positions not given; B10 (isothiocyantophenethyl-ureido-closo-decaborate(2-)) on lysine amines, positions not given
notes: also called B10-conjugated 1H8
B10: 5G4 reacted with B10 (antibody, V domains shown)
VH: DVQLQESGPGLVKPSQSLSLTCTVTGYSITSDYVWNWIRQFPGNKLEWMAYISYSGTTSYNPSLSSRISITRDTSSNQFFLQLNSVTSEDTATYYCARGLDYWGQGTSVTVSS
VL: QIVLTQSPAIMSVSLGERVTMTCTASSSVTSSYFHWYQQKPGSSPKLWIYSTSNLASGVPARFSGSGSGTSYSLTISSMEAEDAATYYCHQYHRSPRTFGGGTKLEIK
modifications: B10 on lysine amines, positions not given; B10 (isothiocyantophenethyl-ureido-closo-decaborate(2-)) on lysine amines, positions not given
notes: also called B10-conjugated 5G4
B11: 10C4-B10 (B10-conjugated 10C4 anti-CD123 mAb) (antibody, V domains shown)
VH: QVQLKESGPGLVAPSQNLSITCTVSGFSLTTYDINWIRQPPGKGLEWLGVIWTGGGTNYNSAFMSRLSISKDNSKSQVFLKMNSLQTDDTAMYYCVRGDTYHYALDFWGQGTSVTVSS
VL: DIVMSQSPSSLAVSAGEKVTMSCKSSQSLLSSGTRKNYLAWYQQKPGQSPKLLIYWASTRESGVPDRFTGSGSGTDFTLTISSVQAEDLAVYYCKQSYILFTFGSGTKLEIK
modifications: B10 on lysine amines, positions not given; B10 (isothiocyantophenethyl-ureido-closo-decaborate(2-)) on lysine amines, positions not given
B12: 123-ATX1B7 (Human anti-CD123 antibody from ATX-GX mouse, Kappa Light Chain) (antibody, V domains shown)
VH: QVQLVQSGAEVKKPGASVKVSCKASGYTFTSFGLTWVRQAPGQGLEWMGWFNAYSGKTYYAPTLQDRVTMTTDPSTSTAYMELMSLTSDDTAIYYCARDLVFDYWGQGTLVTVSS
VL: EIVLTQSPGTLSLSPGERATLSCRASQSFSDRYLAWYQQKPGQAPRLLIYGTSSRATGIPDRFSGSGSGTDFTLTISRLESEDSAVYYCQQYGRSPFTFGPGTKVDIK
B13: 123-ATX1E5 (Human anti-CD123 antibody from ATX-GX mouse, Kappa Light Chain) (antibody, V domains shown)
VH: QVQLVQSGAEVKKPGASVKVSCKASGYTFTSFGISWVRQAPGQGLEWMGWFNAYSGNTYYAPTLQDRVTMTTDTSTSTAYMELMSLRSDDTAIYYCARDLVFDYWGQGTLVTVSS
VL: EIVLTQSPGTLSLSPGERATLSCRASQSFSDRYLAWYQQKPGQAPRLLIYGTFSRATGIPDRFSGSGSGTDFTLTISRLDSEDFAVYYCQQYGSSPFTFGPGTKVDIK
B14: 123-ATX1F2 (Human anti-CD123 antibody from ATX-GX mouse, Kappa Light Chain) (antibody, V domains shown)
VH: QVQLVQSGAEVKKPGASVKVSCKVSGYTLTEFSMHWVRQAPGKGLEWMGVFDPEHGATIYAQKFQGRVTMTEDTSTDTAYMDLSYLRSEDTAVYYCATYFDFWSGYSHFDFWGQGTLVTVSS
VL: DIQMTQSPSSLSASVGDRVTITCRASQGIRNDLGWYQQRPGKAPKRLIYAASSLQSGVPSRFSGSGSGTEFTLAISSLQPEDFATYSCLQHNSYPWTFGQGTKVEIK
B15: 123-ATX1B2 (Human anti-CD123 antibody from ATX-GX mouse, Kappa Light Chain) (antibody, V domains shown)
VH: QVQLVQSGAEVKKPGASVEVSCKASGYTFTGYYIHWVRQAPGQGLEWMGWINPNSGGTNYAQKFQGRVTMTWDTSISTAFMELSRLRSDDTAVYSCARDRGGPYFDYWGQGTLVIVSS
VL: DIQMTQSPSSLSASVGDRVTITCQASQDITNYLNWYQQKPGKAPKLQIYDASNLETGVPSRFSGSGSGTDFTFTISSLQPEDIATYYCQQHDDLPLTFGGGTKVEIK

The binders below were run against T2, human interleukin-3 (IL-3) receptor alpha-chain (CD123), on cells (human, UniProt P26951 19-378) (assay: flow cytometry (PE-Cy7-A), mAb + labeled secondary antibody, RS4;11 cells transduced with human CD123).
T2 construct: whole, on cells; also called human CD123
B1: binds. B2: binds. B3: binds.

These binders were tested against T1, Hs_CD123_6His-Avi (CD123 ECD-His-Avi …) (assay: SPR (Biacore T-100), univalent affinity; antibody captured on the CM4 chip, human CD123 ECD as analyte).
Method: FIGS. 21A-21B. Surface plasmon resonance (Biacore T-100) analyses were performed to rigorously/precisely determine univalent binding affinities of recombinant, fully human versions of the anti-human CD123 monoclonal antibodies 1B5, 1D9, and 1E3, using human IgG1 (FIG. 21A) and human IgG4 frameworks (FIG. 21B). For these experiments, a peptide encoding the complete extracellular portion of human CD123 was used, and the antibodies were captured on the biosensor chip (CM4) via a Fc gamma-specific goat anti-human IgG and amine coupling.
Binder B4 has a Kd of 0.563 nM, a koff of 3.68e-05 s⁻¹ and a kon of 65500 M⁻¹ s⁻¹. B5 gave a Kd of 0.594 nM, a koff of 4.19e-05 s⁻¹ and a kon of 70600 M⁻¹ s⁻¹. Binder B6 has a Kd of 0.652 nM, a koff of 6.15e-05 s⁻¹ and a kon of 94400 M⁻¹ s⁻¹. For B7, the Kd was 0.792 nM, the koff was 7.02e-05 s⁻¹ and the kon was 88600 M⁻¹ s⁻¹.

What follows are binders tested against T2, human interleukin-3 (IL-3) receptor … (assay: flow cytometry (APC-A), mAb reacted with 5, 10 or 15 equivalents of B10 + secondary antibody, RS4;11 cells overexpressing human CD123 [CONT.]).
Text: FIG. 4. Parental CD123-negative human RS4;11 ALL cells and RS4;11 cells engineered to overexpress human CD123 were used for flow cytometric phenotyping of a series of anti-CD123 mAbs (11F11, 5G4, 10C4, 1H8) that were either left unmodified or were reacted with 5, 10, or 15 equivalents of B10. A secondary mAb-only control is also shown.
B8: binds. B9: binds. B10: binds. B11: binds.

These binders were tested against T2, human interleukin-3 (IL-3) receptor … (assay: flow cytometry (PE-A), 2 µg/mL by the legend (hybridoma supernatants by paragraph 203) + labeled secondary antibody, parental MOLM-13 cells against MOLM-13 CD123KO).
B12: binds. B13: binds. B14: binds. B15: binds.
